Measured values reported in PMC7907450.

Assays:
[1] = system: 70S ribosome pretranslocation complex, deacylated tRNAfMet in P site, A site; test: nitrocellulose filter binding, koff/kon; conditions: 7 mM Mg2+, aminoacylated with fMet-Val dipeptide, MST: buffer TAKM7 (7 mM Mg2+; full composition not in material), 30 min at 37 C, A-site peptidyl-tRNA: buffer TAKM with 7-20 mM Mg2+
[2] = system: 30S ribosomal subunit initiation complex with IF1, IF2, IF3 and BPY-Met-tRNAfMet; test: MST; conditions: MST: buffer TAKM7 (7 mM Mg2+; full composition not in material), 30 min at 37 C, A-site peptidyl-tRNA: buffer TAKM with 7-20 mM Mg2+, nitrocellulose …
[3] = system: 30S ribosomal subunit initiation complex without IF3 (IF1, IF2, BPY-Met-tRNAfMet); test: MST; conditions: MST: buffer TAKM7 (7 mM Mg2+; full composition not in material), 30 min at 37 C, A-site peptidyl-tRNA: buffer TAKM with 7-20 mM Mg2+, nitrocellulose …
[4] = system: 30S ribosomal subunit initiation complex with IF1, IF2, IF3 and elongator BPY-Phe-tRNAPhe; test: MST; conditions: 60 uM amicoumacin A, MST: buffer TAKM7 (7 mM Mg2+; full composition not in material), 30 min at 37 C, A-site peptidyl-tRNA: buffer TAKM with 7-20 mM Mg2+, nitrocellulose …

Substance	Kd ([1]; 30 uM amicoumacin A) [nM]	Kd ([1]; no antibiotic) [nM]	Kd ([2]; 30 uM edeine) [nM]	Kd ([2]; 60 uM amicoumacin A) [nM]	Kd ([2]; 60 uM kasugamycin) [nM]	Kd ([2]; no antibiotic) [nM]	Kd ([3]; no IF3, amicoumacin A) [nM]	Kd ([3]; no IF3, no antibiotic) [nM]	Kd [4] [nM]
fMet-[14C]Val-tRNAVal	461	688	–	–	–	–	–	–	–
model mRNA AUG (Met-Phe)	–	–	568	169	59	18	77	1280	940
model mRNA UUC start codon	–	–	–	584	–	–	587	1270	–
